Target: T1, equine FcRn complex (equine, UniProt F6XZ61 19-292; P30441 21-118)
T1 construct: Heterodimer of p51 extracellular domain (Avi-tag, 8x His) and Flag-tagged beta-2-microglobulin from HEK293 cells; also called horse FcRn
Assay: SPR (Biacore 8K+), pH 5.9, 25 C; FcRn captured by anti-His, IgG as analyte; 1:1 kinetic model

Fold increase over wild-type KD: 2.8 fold | Kd: 52.3 nM
B1: Equine G426Y (antibody)
chain: APELLGGPSVFIFPPNPKDTLMITRTPEVTCVVVDVSQENPDVKFNWYMDGVEVRTATTRPKEEQFNSTYRVVSVLRIQHQDWLSGKEFKCKVNNQALPQPIERTITKTKGRSQEPQVYVLAPHPDELSKSKVSVTCLVKDFYPPEINIEWQSNGQPELETKYSTTQAQQDSDGSYFLYSKLSVDRNRWQQGTTFTCYVMHEALHNHYTQKNVSKNPGK

From patent publication US20220177549A1 (INVETX, published 2022)
